Measurements taken from IntAct's records for PubMed 23084749.

B1: Protein deacetylase HDAC6 (Homo sapiens), Q9UBN7 (parent)
chain: MTSTGQDSTTTRQRRSRQNPQSPPQDSSVTSKRNIKKGAVPRSIPNLAEVKKKGKMKKLGQAMEEDLIVGLQGMDLNLEAEALAGTGLVLDEQLNEFHCLWDDSFPEGPERLHAIKEQLIQEGLLDRCVSFQARFAEKEELMLVHSLEYIDLMETTQYMNEGELRVLADTYDSVYLHPNSYSCACLASGSVLRLVDAVLGAEIRNGMAIIRPPGHHAQHSLMDGYCMFNHVAVAARYAQQKHRIRRVLIVDWDVHHGQGTQFTFDQDPSVLYFSIHRYEQGRFWPHLKASNWSTTGFGQGQGYTINVPWNQVGMRDADYIAAFLHVLLPVALEFQPQLVLVAAGFDALQGDPKGEMAATPAGFAQLTHLLMGLAGGKLILSLEGGYNLRALAEGVSASLHTLLGDPCPMLESPGAPCRSAQASVSCALEALEPFWEVLVRSTETVERDNMEEDNVEESEEEGPWEPPVLPILTWPVLQSRTGLVYDQNMMNHCNLWDSHHPEVPQRILRIMCRLEELGLAGRCLTLTPRPATEAELLTCHSAEYVGHLRATEKMKTRELHRESSNFDSIYICPSTFACAQLATGAACRLVEAVLSGEVLNGAAVVRPPGHHAEQDAACGFCFFNSVAVAARHAQTISGHALRILIVDWDVHHGNGTQHMFEDDPSVLYVSLHRYDHGTFFPMGDEGASSQIGRAAGTGFTVNVAWNGPRMGDADYLAAWHRLVLPIAYEFNPELVLVSAGFDAARGDPLGGCQVSPEGYAHLTHLLMGLASGRIILILEGGYNLTSISESMAACTRSLLGDPPPLLTLPRPPLSGALASITETIQVHRRYWRSLRVMKVEDREGPSSSKLVTKKAPQPAKPRLAERMTTREKKVLEAGMGKVTSASFGEESTPGQTNSETAVVALTQDQPSEAATGGATLAQTISEAAIGGAMLGQTTSEEAVGGATPDQTTSEETVGGAILDQTTSEDAVGGATLGQTTSEEAVGGATLAQTTSEAAMEGATLDQTTSEEAPGGTELIQTPLASSTDHQTPPTSPVQGTTPQISPSTLIGSLRTLELGSESQGASESQAPGEENLLGEAAGGQDMADSMLMQGSRGLTDQAIFYAVTPLPWCPHLVAVCPIPAAGLDVTQPCGDCGTIQENWVCLSCYQVYCGRYINGHMLQHHGNSGHPLVLSYIDLSAWCYYCQAYVHHQALLDVKNIAHQNKFGEDMPHPH
partner: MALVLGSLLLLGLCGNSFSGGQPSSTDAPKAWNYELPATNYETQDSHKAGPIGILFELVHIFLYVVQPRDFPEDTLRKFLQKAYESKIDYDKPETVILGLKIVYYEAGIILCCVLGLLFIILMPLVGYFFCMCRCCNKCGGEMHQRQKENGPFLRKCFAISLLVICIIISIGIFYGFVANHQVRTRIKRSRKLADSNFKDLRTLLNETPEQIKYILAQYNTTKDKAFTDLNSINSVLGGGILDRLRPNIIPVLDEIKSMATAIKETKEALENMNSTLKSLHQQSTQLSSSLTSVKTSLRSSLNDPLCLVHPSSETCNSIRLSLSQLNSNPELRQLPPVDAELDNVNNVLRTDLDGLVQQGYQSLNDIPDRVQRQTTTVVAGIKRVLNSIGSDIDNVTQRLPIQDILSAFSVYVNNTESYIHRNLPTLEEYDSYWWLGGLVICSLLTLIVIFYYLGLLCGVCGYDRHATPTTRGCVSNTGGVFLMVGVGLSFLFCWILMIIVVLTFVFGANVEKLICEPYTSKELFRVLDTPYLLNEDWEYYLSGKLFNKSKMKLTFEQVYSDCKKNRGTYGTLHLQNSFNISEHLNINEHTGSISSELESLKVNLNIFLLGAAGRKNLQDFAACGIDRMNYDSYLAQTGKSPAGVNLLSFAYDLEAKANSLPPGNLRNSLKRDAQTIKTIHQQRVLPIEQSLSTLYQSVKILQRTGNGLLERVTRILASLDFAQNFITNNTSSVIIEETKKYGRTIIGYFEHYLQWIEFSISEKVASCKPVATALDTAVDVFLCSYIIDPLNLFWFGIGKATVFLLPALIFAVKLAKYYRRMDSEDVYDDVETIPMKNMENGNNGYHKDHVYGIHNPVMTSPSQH

Variants of: B1
Conditions: with prom1_human PROM1, O43490

| Variant | effect of a mutation on the interaction |
| --- | --- |
| Y570A | with no effect |
| Y570E | disrupting interaction strength |

Results, then the variant that gave them:

| effect of a mutation on the interaction | Variant |
| --- | --- |
| with no effect | H216A;H611A |
| with no effect | S568A |
| disrupting interaction strength | S568E |
